The target of assay [1] is β subunit of E. coli RNAP (E. coli, UniProt P0A8V2 1-1342). In words: cryo-EM structure.
Assay [2] concerns the target β’ subunit of E. coli RNAP (E. coli, UniProt P0A8T7 1-1407). The assay is described as follows: cryo-EM structure.

Chain of β’ subunit of E. coli RNAP (P0A8T7 whole entry): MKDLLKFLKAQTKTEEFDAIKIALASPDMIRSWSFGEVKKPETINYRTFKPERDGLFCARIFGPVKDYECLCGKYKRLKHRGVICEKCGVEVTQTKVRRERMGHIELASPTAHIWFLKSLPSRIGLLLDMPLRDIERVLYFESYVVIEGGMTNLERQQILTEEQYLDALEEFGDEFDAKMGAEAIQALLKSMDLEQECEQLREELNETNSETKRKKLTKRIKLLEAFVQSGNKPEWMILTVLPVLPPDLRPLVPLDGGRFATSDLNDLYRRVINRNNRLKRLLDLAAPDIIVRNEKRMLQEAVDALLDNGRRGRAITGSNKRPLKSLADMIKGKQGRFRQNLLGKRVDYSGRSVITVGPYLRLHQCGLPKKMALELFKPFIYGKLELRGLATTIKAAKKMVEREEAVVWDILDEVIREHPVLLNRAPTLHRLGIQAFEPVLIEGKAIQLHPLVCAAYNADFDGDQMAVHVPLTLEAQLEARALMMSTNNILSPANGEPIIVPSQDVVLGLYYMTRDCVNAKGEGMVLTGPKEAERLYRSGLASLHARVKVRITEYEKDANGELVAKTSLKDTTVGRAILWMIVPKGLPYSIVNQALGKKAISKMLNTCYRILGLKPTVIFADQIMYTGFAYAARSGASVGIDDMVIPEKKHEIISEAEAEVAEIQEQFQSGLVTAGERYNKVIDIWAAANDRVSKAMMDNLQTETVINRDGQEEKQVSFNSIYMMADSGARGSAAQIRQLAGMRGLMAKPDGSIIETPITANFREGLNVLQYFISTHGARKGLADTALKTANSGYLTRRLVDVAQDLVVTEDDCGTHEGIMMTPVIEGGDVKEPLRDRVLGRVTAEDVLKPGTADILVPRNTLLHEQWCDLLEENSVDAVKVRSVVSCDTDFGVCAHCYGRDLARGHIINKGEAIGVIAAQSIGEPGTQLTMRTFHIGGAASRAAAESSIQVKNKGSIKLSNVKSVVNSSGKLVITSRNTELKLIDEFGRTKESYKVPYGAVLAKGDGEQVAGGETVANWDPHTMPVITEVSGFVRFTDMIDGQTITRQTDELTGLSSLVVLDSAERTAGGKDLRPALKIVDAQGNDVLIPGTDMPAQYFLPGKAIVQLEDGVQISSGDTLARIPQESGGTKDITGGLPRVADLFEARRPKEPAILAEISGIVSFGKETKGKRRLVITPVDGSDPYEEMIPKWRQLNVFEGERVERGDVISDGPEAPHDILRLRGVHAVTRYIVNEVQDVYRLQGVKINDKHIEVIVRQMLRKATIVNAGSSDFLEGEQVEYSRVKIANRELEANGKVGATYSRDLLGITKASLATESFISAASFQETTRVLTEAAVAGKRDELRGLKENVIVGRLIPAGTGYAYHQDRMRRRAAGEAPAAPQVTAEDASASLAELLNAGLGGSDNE
Chain of β subunit of E. coli RNAP (P0A8V2 whole entry): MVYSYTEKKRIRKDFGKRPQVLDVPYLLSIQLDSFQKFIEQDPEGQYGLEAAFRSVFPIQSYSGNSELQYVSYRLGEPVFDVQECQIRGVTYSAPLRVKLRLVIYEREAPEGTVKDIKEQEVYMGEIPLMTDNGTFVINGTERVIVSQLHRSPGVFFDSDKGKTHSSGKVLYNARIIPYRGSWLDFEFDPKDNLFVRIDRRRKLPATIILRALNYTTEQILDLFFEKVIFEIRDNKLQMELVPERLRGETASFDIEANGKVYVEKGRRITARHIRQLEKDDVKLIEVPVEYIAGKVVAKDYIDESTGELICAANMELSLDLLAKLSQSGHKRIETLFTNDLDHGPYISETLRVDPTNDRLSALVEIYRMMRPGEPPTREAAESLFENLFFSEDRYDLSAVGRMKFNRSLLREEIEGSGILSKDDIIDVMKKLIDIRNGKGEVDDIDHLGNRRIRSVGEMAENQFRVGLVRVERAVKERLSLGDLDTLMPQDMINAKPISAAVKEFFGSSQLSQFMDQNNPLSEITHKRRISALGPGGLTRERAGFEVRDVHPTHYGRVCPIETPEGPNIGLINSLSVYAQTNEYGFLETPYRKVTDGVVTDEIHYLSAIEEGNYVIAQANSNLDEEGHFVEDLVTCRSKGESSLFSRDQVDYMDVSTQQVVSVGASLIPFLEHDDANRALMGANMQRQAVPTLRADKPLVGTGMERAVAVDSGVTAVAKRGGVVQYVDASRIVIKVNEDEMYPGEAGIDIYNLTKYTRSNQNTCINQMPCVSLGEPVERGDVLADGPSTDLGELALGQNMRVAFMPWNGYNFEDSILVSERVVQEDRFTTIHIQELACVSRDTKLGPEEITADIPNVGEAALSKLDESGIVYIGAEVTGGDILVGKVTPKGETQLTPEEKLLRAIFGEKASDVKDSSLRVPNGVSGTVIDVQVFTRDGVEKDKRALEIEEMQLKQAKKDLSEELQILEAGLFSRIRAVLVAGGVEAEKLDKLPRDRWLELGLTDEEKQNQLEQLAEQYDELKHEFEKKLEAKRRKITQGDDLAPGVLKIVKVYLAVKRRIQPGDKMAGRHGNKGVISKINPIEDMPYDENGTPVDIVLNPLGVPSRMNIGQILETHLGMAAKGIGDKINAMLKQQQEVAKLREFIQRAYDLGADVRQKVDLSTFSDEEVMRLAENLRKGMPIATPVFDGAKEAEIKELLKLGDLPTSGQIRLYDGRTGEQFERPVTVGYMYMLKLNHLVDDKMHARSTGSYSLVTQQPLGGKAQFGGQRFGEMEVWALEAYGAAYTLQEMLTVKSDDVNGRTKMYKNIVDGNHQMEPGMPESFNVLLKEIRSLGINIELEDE

B1: E. coli RapA protein (enzyme, UniProt P60240 1-968, looked up)
chain: MPFTLGQRWISDTESELGLGTVVAVDARTVTLLFPSTGENRLYARSDSPVTRVMFNPGDTITSHDGWQMQVEEVKEENGLLTYIGTRLDTEESGVALREVFLDSKLVFSKPQDRLFAGQIDRMDRFALRYRARKYSSEQFRMPYSGLRGQRTSLIPHQLNIAHDVGRRHAPRVLLADEVGLGKTIEAGMILHQQLLSGAAERVLIIVPETLQHQWLVEMLRRFNLRFALFDDERYAEAQHDAYNPFDTEQLVICSLDFARRSKQRLEHLCEAEWDLLVVDEAHHLVWSEDAPSREYQAIEQLAEHVPGVLLLTATPEQLGMESHFARLRLLDPNRFHDFAQFVEEQKNYRPVADAVAMLLAGNKLSNDELNMLGEMIGEQDIEPLLQAANSDSEDAQSARQELVSMLMDRHGTSRVLFRNTRNGVKGFPKRELHTIKLPLPTQYQTAIKVSGIMGARKSAEDRARDMLYPERIYQEFEGDNATWWNFDPRVEWLMGYLTSHRSQKVLVICAKAATALQLEQVLREREGIRAAVFHEGMSIIERDRAAAWFAEEDTGAQVLLCSEIGSEGRNFQFASHMVMFDLPFNPDLLEQRIGRLDRIGQAHDIQIHVPYLEKTAQSVLVRWYHEGLDAFEHTCPTGRTIYDSVYNDLINYLASPDQTEGFDDLIKNCREQHEALKAQLEQGRDRLLEIHSNGGEKAQALAESIEEQDDDTNLIAFAMNLFDIIGINQDDRGDNMIVLTPSDHMLVPDFPGLSEDGITITFDREVALAREDAQFITWEHPLIRNGLDLILSGDTGSSTISLLKNKALPVGTLLVELIYVVEAQAPKQLQLNRFLPPTPVRMLLDKNGNNLAAQVEFETFNRQLNAVNRHTGSKLVNAVQQDVHAILQLGEAQIEKSARALIDAARNEADEKLSAELSRLEALRAVNPNIRDDELTAIESNRQQVMESLDQAGWRLDALRLIVVTHQ
B1: the binding result in assay [1] and in assay [2] was “binds” each time.

Source of the values: article doi:10.1101/2021.05.05.442812 (bioRxiv, 2021).
